Entries after “also recorded” stand apart in the source; their conditions may differ.
Tests used:
[1] = tested on: co-cultures of GFP− TNBC cells and GFP+ BPE cells; assay: Co-culture of tumor cells with GFP+ BPE cells, relative survival by flow cytometry; format: cell-based, human
Experimental: To determine whether EpCAM-AsiCs specifically target EpCAM+ cells when mixed with EpCAM^dim non-transformed epithelial cells, we incubated co-cultures of GFP− TNBC cells and GFP+ BPE cells with PLK1 EpCAM-AsiCs or medium and used GFP fluorescence to measure their relative survival by flow cytometry 3 days later (FIG. 2D, 2E). […] Thus PLK1 EpCAM-AsiCs are selectively cytotoxic for EpCAM+ tumor cells when mixed with normal cells.
To understand whether EpCAM-AsiC can specifically target basal A and luminal breast cancer cells and inhibit proliferation we designed an EpCAM-AsiC targeting PLK1. PLK1 is a known trigger for […] transition. The effect of EpCAM-AsiC targeting PLK1 on cell proliferation was tested on 10 breast cancer cells representative of basal A, B and luminal cell lines. […] A correlation was seen between EpCAM expression levels and cell viability (FIG. 27B). To understand if EpCAM-AsiC will specifically target EpCAM+ cells in a mix cell population HCC1937 (EpCAM+GFP−) cell were co-cultured with BPE (EpCAM-GFP+) cells and treated with EpCAM-AsiC targeting PLK1 or untreated. […] The co-culture was repeated with other basal A cell lines (MB468 and HCC1143) similar reults were obtained. When BPE cells were grown in a co-culture with basal B cell (MB231) the ratio between BPE and MB231 cells stayed the same regardless of the EpCAM-AsiC treatment (66% BPE and 33% MB231 in untreated co-culture and 61% BPE and 38% MB231 following EpCAM-AsiC treatment) (FIG. 27C, 27D).

[2] = tested on: MB468-luc tumors; assay: Tumor inhibition, EpCAM+ MB468-luc xenograft; format: in vivo, nude mice; conditions: for growth of EpCAM+ MB468 tumors: 5 mg/kg sc every 3 d (72 h) for 2 wks
Experimental: (§1) For tumor inhibition studies, MB468-luc (5×10^6) and MB231-luc-mCherry (5×10^5) cells trypsinized with Tryple Express (Invitrogen), resuspended in a 1:1 WIT-Matrigel solution and injected subcutaneously in the flank of 8-week old female Nu/J mice (Stock #002019, Jackson Laboratories). Tumors size was analyzed daily using the IVIS Spectra, after 5 days tumors were clearly visible. […] Mice were treated every 72 h for 14 days.

[3] = tested on: basal-A, luminal and basal-B breast cancer cell lines; assay: Cell proliferation/viability by CellTiter-Glo in 10 breast cancer cell lines; format: cell-based, human
Description: To explore whether EpCAM-AsiCs could be used as anti-tumor agents in breast cancer, we examined by CellTiterGlo assay the effect of AsiCs directed against PLK1, a kinase required for mitosis, on survival of 10 breast cancer cell lines that included 5 basal-A TNBCs, 2 luminal cell lines, and 3 basal-B TNBCs. […] The anti-proliferative effect strongly correlated with EpCAM expression (FIG. 2B). The reduction in viable EpCAM+ cells after knockdown was due to induction of apoptosis, assessed by annexin V-propidium iodide staining and caspase activation (data not shown). To determine whether ligation of the EpCAM aptamer contributed to the anti-proliferative effect of the EpCAM-AsiC, we compared survival of cells that were treated with the PLK1 EpCAM-AsiC with cells treated with the aptamer on its own (FIG. 2C). […] Thus the PLK1 EpCAM-AsiC asserts its specific anti-tumor effect on EpCAM+ breast cancer cells by gene knockdown.
For uptake and silencing treatment, cells were plated at low density (10,000 cells/well in 96-well plates) and treated immediately. All AsiC and siRNA treatments were performed in either OptiMEM or WIT medium. Cell viability was assessed by CellTiter-Glo (Promega) or by Trypan-Blue staining in 96-well plates.

[4] = tested on: breast cancer cell lines; assay: Colony formation assay; format: cell-based, human; conditions: AsiC 4 uM, paclitaxel 100 nM
Experimental: (§2) For colony formation assay, 1,000 viable cells were treated for 6 h in round bottom 96-well plates and then transferred to 10-cm plates in serum-containing medium. Medium was replaced every 3 d. After 8-14 d, cells were fixed in methanol (−20 C) and stained with crystal violet. For sphere formation assay, 1,000/ml viable cells were treated for 6 h in round bottom 96-well plates and then cultured in suspension in serum-free DMEM/F12 1:1 (Invitrogen), supplemented with EGF (20 ng/ml, BD Biosciences), B27 (1:50, Invitrogen), 0.4% bovine serum albumin (Sigma) and 4 μg/ml insulin (Sigma). Spheres were counted after 1 or 2 weeks.

[5] = tested on: breast cancer cell lines; assay: Sphere (mammosphere) formation assay; format: cell-based, human
Experimental: as §2

[6] = tested on: CD44+CD24low/− and ALDH+ cells; assay: Proportion of cells with T-IC phenotype; format: cell-based, human; conditions: basal-A and luminal lines; listed as PLK1 EpCAM-AsiCs
[7] = tested on: MB231-luc-mCherry tumors; assay: Tumor inhibition, EpCAM− MB231-luc-mCherry xenograft; format: in vivo, nude mice; conditions: 5 mg/kg sc every 3 d (72 h) for 2 wks
Experimental: as §1

[8] = tested on: Argonaute (AGO); assay: PLK1 siRNA association with Argonaute (pan-AGO immunoprecipitation, qRT-PCR); format: cell-based, human; conditions: MDA-MB-468 cells treated 2 days; listed as PLK1 EpCAM-AsiCs
Description: MB-468 cells, treated with PLK1 EPCAM-AsiC or siRNA for 2 days, were lysed, and cell lysates were immunoprecipitated with pan-AGO antibody or IgG isotype control. The amount of PLK1 siRNA in the immunoprecipitates was quantified by Taqman qRT-PCR, presented as log2 mean with SEM, relative to miR-16. **, P<0.01 by Student's t-test relative to siRNA-treated cells. ND, not detectable. […] This is likely because most RNAs that are taken up by cells are not released from endosomes to the cytosol (A. Wittrup et al., Visualizing lipid-formulated siRNA release from endosomes and target gene knockdown. Nature Biotechnology 2015, in press).
Uptake was clearly detected at 22 hr, but increased greatly after 43 hr. To test whether EpCAM-AsiCs are specifically taken up by EpCAM bright cell lines, the 3′ end of the antisense strand of the AsiC was fluorescently labeled. […] Previous studies have shown that AsiCs are processed within cells by Dicer to release the siRNA from the aptamer (10, 12, 15).

[9] = listed as EpCAM-AsiC targeting PLK1
[10] = listed as EpCAM-AsiCs targeting PLK1

B1: EpCAM-AsiC: EpCAM aptamer-siRNA chimera, siRNA cargo not specified at the place; 2'-fluoropyrimidines, 3'-dTdT (nucleic acid)
sense: GCGACUGGUUACCCGGUCGUUUUGAAGAAGAUCACCCUCCUUATT
antisense: UAAGGAGGGUGAUCUUCUUCATT
modifications: DNA at T, 2'-fluoro at CU, RNA at AG, backbone not given here; further chemistry not fully specified
notes: EpCAM aptamer-siRNA chimera, siRNA cargo not specified at the place; 2'-fluoropyrimidines, 3'-dTdT
**Q.** With B1 as the molecule, how does the “decrease of the proportion of surviving tumor cells” value ([1]; BPE mixed with epithelial TNBC lines, after 3 d) read?
**A.** The value was 7 fold.

**Q.** And the “injections until complete tumor regression” value ([2]; very aggressive TNBC xenograft model)?
**A.** The value was 3 injections.

B2: PLK1 EpCAM-AsiC: EpCAM aptamer linked by U-U-U to PLK1 siRNA sense strand (SEQ ID NO: 1), annealed to antisense strand (SEQ ID NO: 2) (nucleic acid)
sense: GCGACUGGUUACCCGGUCGUUUUGAAGAAGAUCACCCUCCUUATT
antisense: UAAGGAGGGUGAUCUUCUUCATT
modifications: DNA at T, 2'-fluoro at CU, RNA at AG, backbone not given here; EpCAM aptamer fused to sense strand
**Q.** What does the source list for B2?
**A.** cell proliferation/viability, basal-A and luminal (EpCAM+) lines [3, 9]: displayed a decrease in cell viability; also recorded: decreased cell proliferation in both basal A and luminal cell lines; also recorded: suppressed cell viability in basal A and luminal cell lines; cell proliferation/viability, basal-B lines [3, 9]: having no effect on basal B cells; cell proliferation/viability, basal-A and luminal (EpCAM+) lines [3, 10]: decreased cell proliferation; cell proliferation/viability, basal-B lines [3, 10]: did not inhibit basal-B cells; proportion of surviving EpCAM+ basal-A tumor cells ([1]; 3 days): greatly reduced the proportion of surviving EpCAM+ basal-A tumor cells; survival of an EpCAM− basal-B cell line in co-culture ([1]; 3 days): had no effect on survival of an EpCAM− basal-B cell line; share of EpCAM− (BPE) cells in co-culture after treatment ([1]; HCC1937 + BPE, untreated 41% BPE): 83%; share of EpCAM+ (HCC1937) cells in co-culture after treatment ([1]; HCC1937 + BPE, untreated 59% HCC1937): 17%; share of MB231 cells in co-culture after treatment ([1]; MB231 + BPE, untreated 33% MB231): 38%; share of BPE cells in co-culture after treatment ([1]; MB231 + BPE, untreated 66% BPE): 61%; colony formation, EpCAM+ basal-A and luminal lines [4, 9]: lost the ability to form colonies; also recorded: only eliminated colony formation in luminal (MCF7) and basal A (HCC1954) cells; colony formation, EpCAM− basal-B lines [4, 9]: did not effect colony formation; colony formation, EpCAM+ basal-A and luminal lines ([4]; listed as PLK1 EpCAM-AsiCs): more strongly inhibited colony and mammosphere formation of EpCAM+ basal-A TNBCs and luminal cell lines than paclitaxel; also recorded: eliminated mammosphere and colony formation; also recorded: more strongly inhibited colony and mammosphere formation of multiple EpCAM+ basal-like TNBCs and a luminal cell line than paclitaxel; colony formation, EpCAM− basal-B lines ([4]; listed as PLK1 EpCAM-AsiCs): inactive against EpCAM− basal-B TNBCs; sphere/mammosphere formation, EpCAM+ basal-A and luminal lines [5, 9]: specifically inhibited sphere formation in basal A and luminal; also recorded: decreased the number of spheres only in basal A and luminal cells; sphere/mammosphere formation, EpCAM− basal-B lines [5, 9]: had no effect on basal B cells; sphere/mammosphere formation, EpCAM+ basal-A and luminal lines ([5]; listed as PLK1 EpCAM-AsiCs): more strongly inhibited colony and mammosphere formation of EpCAM+ basal-A TNBCs and luminal cell lines than paclitaxel; also recorded: eliminated mammosphere and colony formation; also recorded: more strongly inhibited colony and mammosphere formation of multiple EpCAM+ basal-like TNBCs and a luminal cell line than paclitaxel; sphere/mammosphere formation, EpCAM− basal-B lines ([5]; listed as PLK1 EpCAM-AsiCs): inactive against EpCAM− basal-B TNBCs; proportion of cells with T-IC phenotype [6]: reduced the proportion of cells with the phenotype of T-ICs; also recorded: reduced CD44+CD24low and Aldefluor+ cells; time at which tumors completely disappeared in many mice ([2]; 5 mg/Kg every 72 h): 14 days; time of first tumor shrinkage ([2]; 5 mg/Kg every 72 h): 6 days; growth of EpCAM+ MB468 tumors [2]: regress only after treatment with PLK1 EpCAM-AsiC; growth of EpCAM+ MB468 tumors ([2]; listed as PLK1-targeting AsiCs): rapidly completely regressed; growth of EpCAM+ MB468 tumors ([2]; listed as PLK1 EpCAM-AsiCs): caused complete tumor regression of EpCAM+ TNBC xenografts; growth of EpCAM− MB231 tumors [7, 9]: remained unchanged; growth of EpCAM− MB231 tumors ([7]; listed as PLK1-targeting AsiCs): continued to grow; growth of EpCAM− MB231 tumors ([7]; listed as PLK1 EpCAM-AsiCs): had no effect on EpCAM− mesenchymal TNBCs; also recorded: had no effect on EpCAM− basal-B xenografts; PLK1 siRNA bound to Ago / in the RISC [8]: PLK1 siRNA immunoprecipitated with Ago; also recorded: PLK1 siRNA was found in the RISC

Reference: patent US11180762B2, “Methods and compositions for the treatment of cancer” (CHILDREN'S MEDICAL CENTER CORPORATION, priority 2014, dated 2021)
